Reference: the supplement of paper PMC7125110
± gives the standard error. For part of these data: Variants at the floor of the assay were thinned out.

B1: glmS ribozyme (parent)
chain: AUAAAAGCGCCAGAACUACAGAAAUGUAGUUGACGAGGAGGAGGUUUAUCGAAUUUUCGGCGGAUGCCUCCAAA

Experiments:
Settings in all cases: with glucosamine-6-phosphate
glucosamine-6-phosphate [1] = variants of: B1; assay: kcat; higher = faster cleavage; RNA array
Method in brief: (§1)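 kobs was derived by fitting per-tile medians to one- or two-exponential decays after normalising signals to baseline and to non-cleaving reference variants. Those signals came from barcoded ribozyme variants transcribed in situ by E. coli RNA polymerase on sequenced MiSeq chips, followed through a hybridised Cy3 probe at 37 °C and imaged over ~14 h. Glucosamine-6-phosphate (40 μM to 10 mM) in HEPES/KCl/Mg(OAc)2 buffer was flowed in. Weighted Michaelis–Menten fits across concentrations then gave kcat and KM.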

glucosamine-6-phosphate [2] = variants of: B1; assay: KM; higher = weaker cofactor use; RNA array
Method in brief: as §1

glucosamine-6-phosphate [3] = variants of: B1; assay: self-cleavage kobs at 40 uM GlcN6P; higher = faster cleavage; RNA array
Method in brief: as §1

glucosamine-6-phosphate [4] = variants of: B1; assay: self-cleavage kobs at 160 uM GlcN6P; higher = faster cleavage; RNA array
Method in brief: as §1

glucosamine-6-phosphate [5] = variants of: B1; assay: self-cleavage kobs at 640 uM GlcN6P; higher = faster cleavage; RNA array
Method in brief: as §1

glucosamine-6-phosphate [6] = variants of: B1; assay: self-cleavage kobs at 2500 uM GlcN6P; higher = faster cleavage; RNA array
Method in brief: as §1

glucosamine-6-phosphate [7] = variants of: B1; assay: self-cleavage kobs at 10000 uM GlcN6P; higher = faster cleavage; RNA array
Method in brief: as §1

Variant	kcat (glucosamine-6-phosphate [1])	KM (glucosamine-6-phosphate [2])	self-cleavage kobs at 40 uM GlcN6P (glucosamine-6-phosphate [3])	self-cleavage kobs at 160 uM GlcN6P (glucosamine-6-phosphate [4])	self-cleavage kobs at 640 uM GlcN6P (glucosamine-6-phosphate [5])	self-cleavage kobs at 2500 uM GlcN6P (glucosamine-6-phosphate [6])	self-cleavage kobs at 10000 uM GlcN6P (glucosamine-6-phosphate [7])
AUAAAAGCGCCCGAACUACAGAAAUGUAGUUGACGAGGGGGAGGUUUAUCGAAUUUUCGGCGGAUGCCUCCAAA	0.0192 ± 0.0069 s⁻¹	2230 ± 1000 µM	0.000367 ± 4.7e-05 s⁻¹	0.00113 ± 0.00026 s⁻¹	0.00513 ± 0.0012 s⁻¹	0.00799 ± 0.0015 s⁻¹	0.0245 ± 0.0049 s⁻¹
AUAAAAGCGCCCGAACUACAGAAAUGUAGUUGACGAGGAGGAGGUUUCUCGAAUUUUCGGCGGAUGCCUCCAAA	0.000151 ± 3.5e-05 s⁻¹				3.34e-05 ± 1.1e-05 s⁻¹	4.89e-05 ± 1.2e-05 s⁻¹	0.000111 ± 1.2e-05 s⁻¹
AUAAAAGCGCUAGAACUACAGAAAUGUAGUUGACGAGGAGGAGGUUUAUCGAAUUUACGGCGGAUGCCUCCAAA	1.44e-05 ± 2.1e-06 s⁻¹						
AUAAAAGCGCCCGAUCUACAGAAAUGUAGUUGACGAGGAGGAGGUUUAUCGAAUUUUCGGCGGAUGCCUCCAAA	0.00259 ± 0.00075 s⁻¹	1430 ± 600 µM	7.96e-05 ± 8.9e-06 s⁻¹	0.000208 ± 3.6e-05 s⁻¹	0.00126 ± 0.0002 s⁻¹	0.0012 ± 0.00021 s⁻¹	0.00271 ± 0.00031 s⁻¹
AUAAAAGCGCCCGACCUACAGAAAUGUAGUUGACGAGGAGGAGGUUUAUCGAAUUUUCGGCGGAUGCCUCCAAA	0.00209 ± 0.00064 s⁻¹	2000 ± 880 µM	6.78e-05 ± 1.4e-05 s⁻¹	0.000151 ± 2.5e-05 s⁻¹	0.000451 ± 9e-05 s⁻¹	0.000976 ± 0.00019 s⁻¹	0.00216 ± 0.00038 s⁻¹
AUAAAAGCGCCCGUACUACAGAAAUGUAGUUGACGAGGAGGAGGUUUAUCGAAUUUUCGGCGGAUGCCUCCAAA	0.000416 ± 3.2e-05 s⁻¹	2270 ± 350 µM		3.61e-05 ± 9.3e-06 s⁻¹	9.07e-05 ± 1e-05 s⁻¹	0.000202 ± 2.4e-05 s⁻¹	0.000348 ± 2.9e-05 s⁻¹
AUAAAAGCGCCCGAACUACAGAAAUGUAGUUGACGAGGAGGAGGUUUAUCGAAUUUUCGGCGGAUGCCUCCAAA	0.042 ± 0.0066 s⁻¹	2170 ± 410 µM	0.000794 ± 1.3e-05 s⁻¹	0.00261 ± 0.00016 s⁻¹	0.00858 ± 0.00027 s⁻¹	0.0195 ± 0.00085 s⁻¹	0.0393 ± 0.0013 s⁻¹
